Reference: PMC3530388 (Journal of the American Chemical Society, 2012)

Molecular target: the molecule itself
Test: AUC

B1: dihydroneopterin aldolase from Mycobacterium tuberculosis H37Rv (enzyme)
chain: MADRIELRGLTVHGRHGVYDHERVAGQRFVIDVTVWIDLAEAANSDDLADTYDYVRLASRAAEIVAGPPRKLIETVGAEIADHVMDDQRVHAVEVAVHKPQAPIPQTFDDVAVVIRRSRRGGRGWVVPAGGAV
stoichiometry N: 4
